Test [1] addresses T1, SHIP SH2 domain from SHIP-1, recombinant human (human, UniProt Q92835 5-101).
T1 construct: SH2 domain of the inositol phosphatase SHIP-1, human; source: recombinant, produced in-house and purified on the day of the experiment
T1 sequence (looked up): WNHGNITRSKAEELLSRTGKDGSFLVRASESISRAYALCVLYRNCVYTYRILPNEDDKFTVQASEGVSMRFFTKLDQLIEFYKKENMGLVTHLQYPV
Kind of test: SPR; BIAcore 3000; biotinylated phosphopeptides immobilised on a streptavidin-coated CM5 chip (~30 RU), purified recombinant protein passed over; 37°; 10 mM HEPES pH 7·4, 150 mM KCl, 10 mM EDTA, 0·005% Tween 20; equilibrium data, one-site binding curve. The note with it: both partners purified.

The target in test [2] is T2, signalling lymphocyte activation molecule-associated protein (SAP), full length, recombinant human (human, UniProt O60880 1-128).
T2 construct: SAP (SH2D1A), human, full length recombinant protein; called 'soluble monomeric recombinant human SAP' in the results; also called SH2D1A; source: recombinant, produced in-house and purified on the day of the experiment
T2 sequence (looked up): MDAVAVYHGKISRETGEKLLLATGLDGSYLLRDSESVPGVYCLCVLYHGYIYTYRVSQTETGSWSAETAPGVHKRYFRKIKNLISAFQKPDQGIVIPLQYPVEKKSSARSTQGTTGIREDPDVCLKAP
The description is as above. The note with it: both partners purified.

The target in test [3] is CD229 more distal ITSM phosphopeptide (TIpYCS) (human). Kind of test: SPR; data not shown; SAP on tyrosine phosphorylated CD229 distal ITSM peptide, 37°C, n = 3.

Values joined by “and” are separate entries in the source; they are usually repeats but may differ in a detail not shown here. Equal entries are not always repeated. Square brackets hold non-standard residues; d marks the D form. Ends that are not written are not given here. * marks the point of attachment. Biotin = O=C1N[C@H]2[C@H](CS[C@H]2CCCCC(=O)*)N1; pY = N[C@@H](Cc1ccc(OP(=O)(O)O)cc1)C(=O)O

B1: CD244-ITSM1 phosphopeptide (peptide)
peptide: Biotin-EFLTI[pY]EDVKD
notes: CD244 (2B4, SLAMF4), human, ITSM1; source: synthetic peptide; bought: Peptide Protein Research Ltd
As to B1, the dissociation constant Kd in test [1] was 25 µM.

B2: CD229V phosphopeptide (CD229 ITSM1, Val602 variant) (peptide)
peptide: Biotin-GENTV[pY]AQVFN
notes: CD229 (Ly9, SLAMF3), human, first (membrane proximal) ITSM, natural variant Val602 of SNP rs509749; also called CD229 Val602 ITSM; TVpYAQV; source: synthetic peptide; bought: Peptide Protein Research Ltd
Consider B2, for which the dissociation constant Kd in test [2] is 3.4 µM and 2.8 µM and 4.4 µM; in test [1], 100 µM and 82 to 110 µM.

B3: FcγRIIb-ITIM phosphopeptide (peptide)
peptide: Biotin-ADKVGAENTIT[pY]SLLMHPDA
notes: FcγRIIb, human, ITIM; source: synthetic peptide; bought: Peptide Protein Research Ltd
In the case of B3, the dissociation constant Kd in test [1] was determined as 0.36 µM.

B4: CD244-ITSM2 phosphopeptide (peptide)
peptide: Biotin-GGSTI[pY]SMIQS
notes: CD244 (2B4, SLAMF4), human, ITSM2; source: synthetic peptide; bought: Peptide Protein Research Ltd
For B4, in test [1], the dissociation constant Kd came out at 2.4 µM.

B5: signalling lymphocyte activation molecule-associated protein (SAP), full length, recombinant human (natural protein)
chain: MDAVAVYHGKISRETGEKLLLATGLDGSYLLRDSESVPGVYCLCVLYHGYIYTYRVSQTETGSWSAETAPGVHKRYFRKIKNLISAFQKPDQGIVIPLQYPVEKKSSARSTQGTTGIREDPDVCLKAP
Molecule B5 had a dissociation constant (Kd) in test [3] of 0.1 µM.

B6: CD229M phosphopeptide (CD229 ITSM1, Met602 variant) (peptide)
peptide: Biotin-GENTM[pY]AQVFN
notes: CD229 (Ly9, SLAMF3), human, first (membrane proximal) ITSM, natural variant Met602 of SNP rs509749; also called CD229 Met602 ITSM; TMpYAQV; source: synthetic peptide; bought: Peptide Protein Research Ltd
As for B6, the Kd is 1.7 µM and 1.5 to 2 µM in test [2]; 23 to 92 µM and > 50 µM in test [1].

The record behind these values is paper PMC4610628 (Immunology, 2015).
